For this data set, the target named is Concanavalin A (Con A) (UniProt P02866;P02866 164-281;30-148). Kind of data set: particle-based flow cytometry. A general note: In flow cytometry, cells or beads pass a laser one at a time.
Chain of Concanavalin A (Con A) (P02866 164-281, chain 1 of 2): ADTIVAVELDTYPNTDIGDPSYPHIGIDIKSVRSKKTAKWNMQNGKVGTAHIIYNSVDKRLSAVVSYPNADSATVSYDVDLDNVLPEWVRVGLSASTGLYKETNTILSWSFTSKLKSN
Chain of Concanavalin A (Con A) (P02866 30-148, chain 2 of 2): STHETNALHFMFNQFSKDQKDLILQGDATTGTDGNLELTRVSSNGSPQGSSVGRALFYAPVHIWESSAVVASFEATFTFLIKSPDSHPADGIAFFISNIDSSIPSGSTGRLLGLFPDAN

B1: ConA-3-1n (ssDNA)
DNA: GATCCCAGTCCGAAGTAATCGTTGCATCTGCACGACTGGTGAGCTTGAGTGGCAGAAGAACTTGTGCAAACGGCTATAGG
Turning to B1, the binding result was “no binding”.

Source of the values: publication doi:10.1101/626572.
